For 2 molecules, IC50, cell viability (CellTiter-Glo, 72 h) of multiple myeloma cell lines and Kd results are on record in patent US20220251159A1.

As a reminder, the Kd is the equilibrium constant for the complex coming apart. Read a low Kd as a tighter complex.

In assay [1] the target is two different p53 missense mutations (A161T and R175H) expressed in U266 and OPM2 multiple myeloma cells. Nature of the assay: cell-based or functional assay.
Assay [2] concerns the target Full length p53. Put plainly: MST; FIG. 3B. The settings on record: chains peptide; modification not given.

No end group written: not given here. *: point of attachment. Myristoyl = CCCCCCCCCCCCCC(=O)*

B1: pCAP 250 (SEQ ID NO: 1) (peptide)
peptide: Myristoyl-RRHSTPHPD
As to B1, the IC50, cell viability (CellTiter-Glo, 72 h) of multiple myeloma cell lines in assay [1] lay within 1.5 to 3 µM.

B2: pCAP250 (peptide)
chain: RRHSTPHPD
B2: the Kd in assay [2] worked out at 30 µM.
